Columns and labels:
Assay in all cases: GST pull-down, LC-MS/MS; score of protein identification
[1] = target: Electron transfer flavoprotein, α subunit
ATP synthase, O subunit = target: ATP synthase, O subunit
ATP synthase, β chain = target: ATP synthase, β chain
Sequence of ATP synthase, β chain (P56480 47-529): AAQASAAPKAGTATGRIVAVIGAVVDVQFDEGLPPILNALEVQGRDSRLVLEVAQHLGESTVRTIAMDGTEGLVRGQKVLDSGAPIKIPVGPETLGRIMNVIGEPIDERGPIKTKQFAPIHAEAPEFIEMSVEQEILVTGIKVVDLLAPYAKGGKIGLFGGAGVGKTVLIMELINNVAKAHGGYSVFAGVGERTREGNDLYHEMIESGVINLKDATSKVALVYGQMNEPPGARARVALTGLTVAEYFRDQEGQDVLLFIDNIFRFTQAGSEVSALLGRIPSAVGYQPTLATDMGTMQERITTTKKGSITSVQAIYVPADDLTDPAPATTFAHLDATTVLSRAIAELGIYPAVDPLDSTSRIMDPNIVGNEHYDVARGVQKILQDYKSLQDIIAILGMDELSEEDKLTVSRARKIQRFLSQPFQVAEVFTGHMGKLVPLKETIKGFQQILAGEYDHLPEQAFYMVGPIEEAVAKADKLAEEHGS

Sequence of Electron transfer flavoprotein, α subunit (Q99LC5 20-333): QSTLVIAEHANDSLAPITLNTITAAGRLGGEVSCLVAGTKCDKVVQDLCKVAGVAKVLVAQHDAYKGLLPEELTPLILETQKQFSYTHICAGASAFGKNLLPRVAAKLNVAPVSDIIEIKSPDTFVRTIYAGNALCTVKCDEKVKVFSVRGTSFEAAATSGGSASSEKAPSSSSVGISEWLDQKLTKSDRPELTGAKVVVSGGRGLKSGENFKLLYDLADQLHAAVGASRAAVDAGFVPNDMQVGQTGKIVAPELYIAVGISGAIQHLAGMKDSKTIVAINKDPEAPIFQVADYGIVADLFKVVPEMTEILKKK
Sequence of ATP synthase, O subunit (Q9DB20 24-213): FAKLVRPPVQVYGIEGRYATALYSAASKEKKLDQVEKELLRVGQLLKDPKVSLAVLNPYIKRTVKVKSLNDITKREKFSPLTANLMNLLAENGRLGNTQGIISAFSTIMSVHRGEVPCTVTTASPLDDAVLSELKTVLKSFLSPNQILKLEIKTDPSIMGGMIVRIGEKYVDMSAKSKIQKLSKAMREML

“GST-LRRC8A (fusion protein comprised of the leucine rich C-terminus of LRRC8A and GST)” showed an Unused Score [1] of 11.6, an Unused Score (ATP synthase, O subunit) of 8.44 and an Unused Score (ATP synthase, β chain) of 5.94.
